Source: patent publication US20220125947A1 (published 2022)
Positions count from the first letter of the chain named.

T1: T cell receptor (TCR) Vγ9 (TRGV9) (human, UniProt Q99603 21-122)
T1 chain (looked up): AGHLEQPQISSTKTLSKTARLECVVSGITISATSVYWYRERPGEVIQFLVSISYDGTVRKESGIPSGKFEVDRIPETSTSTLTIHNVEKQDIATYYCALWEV

T2: T cell receptor (TCR) Vγ9 (TRGV9) (human, UniProt Q99603 21-122)
T2 sequence (looked up): T1 chain (looked up)

B1: VG9B104 (antibody, human IgG1, kappa, V domains shown)
VH: EVQLVESGGGLVKPGGSLRLSCAASGFTFSVYSMNWVRQAPGKGLEWVSSIGSSSSYIFYADSVKGRFTISRDNAKNSLYLQMNSLRAEDTAVYYCGRDHDYGGLDYWGQGTLVTVSS
VL: EIVLTQSPGTLSLSPGERATLSCRASQSVSSSYLAWYQQKPGQAPRLLIYGPSNRATDIPDRFSGTGSGTDFTLTISRLEPEDFAVYYCQQYGRSPLTFGGGTKVEIKR
B2: VG9B54 (antibody, human IgG1, kappa, V domains shown)
VH: EVQLVESGGGLVKPGGSLRLSCAASGFAFSSYSLTWVRQAPGKGLEWVSSISSSSSYIFYADSVKGRFTISRDNAKNSLYLQMNSLRAEDTAVYYCATDGELGPFDYWGQGTTVTVSS
VL: B1 VL with L4M, Y37F, L47R, P52A, N54S, D58G, T66S
B3: VG9B80 (antibody, human IgG1, kappa, V domains shown)
VH: EVQLVQSGGGLVKSGGSLRLSCAASGFTFSTYSMNWVRQAPGKGLEWVSSISSSSSYIFYADSVKGRIIISRDNAKNSLYLQMNSVRADDTAVYYCAKDGELGVFDYWGQGTLVTVSS
VL: B1 VL with P15A, V29I, L47V, N54G, D58G, S64R, T66S, Y92F
B4: VG9B121 (antibody, human IgG1, kappa, V domains shown)
VH: EVQLVESGGGLVKPGGSLRLSCVASGFTFSDYAMDWVRQAPGKGLDWISSISSTSNYIFYADSVKGRFTISRDNAKNSLYLQMNSLRVEDSAVYYCANSYNWNYGGAFDIWGQGTMVTVSS
VL: DIQMTQSPGTLSSSPGERATLSCRASQSVSSSYFAWYQQKPGRAPRLLIYGASSRATGIPDRFSGSGSGTDFTLTISRLEPEDFAVYFCQQYGRSPLTFGGGTKVEIKR
B5: VG9B195 (antibody, human IgG1, lambda, V domains shown)
VH: EVQLVESGGGLVKPGGSLRLSCAASGFTFSPYTMNWVRQAPGKGLEWVSSISSSSSYMYYADSVKGRFTISRDNAKNSLYLQMNSLRAEDTAVYYCARDGDLVGPTYYFDYWGQGTLVTVSS
VL: SYELMQPPSVSVSPGQTASITCSGDKLGDKYACWYQQKPGQSPVLVIYQHNKRPSGIPERFSGSNSGKTATLTISGTQAMDEADYYCQAWDSTTVVFGGGTKLTVLG
B6: VG9B429 (antibody, human IgG1, kappa)
heavy: not shown
light: DIQMTQSPSSVSASVGDRVTITCRASQGINSWLAWYQQKPGNAPKLLIYAASSLQSGVPSRFSGIGSGTDFIFTISSLQPEDFASYYCQQANSFPWTFGQGTRLEIKRTVAAPSVFIFPPSDEQLKSGTASVVCLLNNFYPREAKVQWKVDNALQSGNSQESVTEQDSKDSTYSLSSTLTLSKADYEKHKVYACEVTHQGLSSPVTKSFNRGEC
B7: VG9B414 (antibody, human IgG1, kappa)
heavy: not shown
light: B6 light with D1E, Q3V
B8: VG9B416 (antibody, human IgG1, kappa)
heavy: not shown
light: EIVLTQSPGTLSLSPGDRATLSCRASQSVASSYLAWYQQKPGQSPRLLIYGASSRATGIPDRFSGSGSGTDFTLTISRLEPEDFAVYYCQQYGSSPPYTFGQGTKLEIKRTVAAPSVFIFPPSDEQLKSGTASVVCLLNNFYPREAKVQWKVDNALQSGNSQESVTEQDSKDSTYSLSSTLTLSKADYEKHKVYACEVTHQGLSSPVTKSFNRGEC
B9: VG9B46 (antibody, human IgG1, kappa, V domains shown)
VH: EVQLVESGGGLVKPGGSLRLSCEASGFTFSINSMNWVRQAPGKGLEWVSSISSTSDYIFNADSVKGRFTISRDNAKNSLYLQMNSLRAEDTAVYYCVRDDVFGAFDIWGQGTMVTVSS
VL: EIVLTQSPGTLSLSPGERATLSCRTSQSVSRSYLGWYQQKPGQPPRLLIFGSSSRATGIPDRFSGSGSGTDFTLTISRLEPEDFAVYYCQQYSRSPLTFGGGTKVDIKR
B10: VG9B140 (antibody, human IgG1, kappa, V domains shown)
VH: EVQLVESGGGLVKPGGSLRLSCAGSGFTFRSYDMNWVRQAPGKGLEWVSSISTSSGYIYYADSVKGRFTISRDNAKNSLSLQMNSLRAEDTAVFYCARDRGIAVAGDYYYGMDVWGQGTMVTVSS
VL: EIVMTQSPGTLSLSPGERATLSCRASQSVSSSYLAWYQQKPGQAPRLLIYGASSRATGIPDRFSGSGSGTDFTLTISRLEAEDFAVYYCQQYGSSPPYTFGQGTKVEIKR

Biological target: T1, T cell receptor (TCR) Vγ9 (TRGV9)
Experiment: cell-based or functional assay
For CD25+ (Vg9+ cells), flow staining in this document: test concentration or dose not given here.
For CD71+ (Vg9+ cells), flow staining in this document: test concentration or dose not given here.

CD25+ (Vg9+ cells), flow staining | CD71+ (Vg9+ cells), flow staining | Granzyme B, Luminex (supernatant) | IFNγ, Luminex (supernatant) | IL6, Luminex (supernatant) | TNFα, Luminex (supernatant) | Vg9 T cell %, flow staining | Binder
41.4% | 95.2% | 5290 | 2440 | 1090 | 4130 | 5.1% | B1

biological target: T2, T cell receptor (TCR) Vγ9 (TRGV9); experiment: cell-based or functional assay

CD25+ (Vg9+ cells), flow staining | CD71+ (Vg9+ cells), flow staining | Granzyme B, Luminex (supernatant) | IFNγ, Luminex (supernatant) | IL6, Luminex (supernatant) | TNFα, Luminex (supernatant) | Vg9 T cell %, flow staining | Binder
32.4% | 93.3% | 3100 | 1600 | 761 | 6100 | 10.5% | B2
49.6% | 98.3% | 3010 | 1360 | 385 | 4910 | 5.2% | B3
50.9% | 98.7% | 1350 | 429 | 161 | 96 | 16.1% | B4
15.8% | 86.9% | 1060 | 303 | 166 | 61 | 3.7% | B5
25.8% | 91.6% | 2150 | 1250 | 816 | 583 | 3% | B6
24.8% | 88.1% | 1490 | 476 | 219 | 186 | 4% | B7
46.4% | 98.8% | 3390 | 1180 | 225 | 87 | 13.9% | B8
37.9% | 95.8% | 3170 | 1150 | 375 | 5260 | 4.4% | B9
20.4% | 70.6% | 2160 | 796 | 602 | 3520 | 3.9% | B10
